According to the DeepSol protein solubility set:

Experiment: soluble on expression in E. coli; label from the status in PepcDB or PDB records

| Sequence | soluble on expression in E. coli |
| --- | --- |
| MGSDKIHHHHHHMKHIAVIGAGLGGLSAAISLASKGFKVTVIERNEHIGGKMMPITSEGHRFDFGPNTITMPEIFQSVILESGADPDDYFTFEKLTRHTVNHFPDGRSLTFASGREAMRTEVDRFTKGQLAKNDITGYQDEVRELYNIAKQQFFINIDSYFNFSLLRDMTKVHPFKTLHGLHKKYFKDPQLIQALDRYATYIGSSPFQAPATFGLIAHLELNDGVYFTRGGNTAIAEGFARRARELGVTFRLGDEVTQIEVTNQLATEIELNHVDYLSVDFIVLNGDLLTQYPRLISETVRPDFKNPTPAQMEPSISAYVRCIGLGRRIAGLAHHNVFFSSDYEAEFEALFNQHRYAEEPTIYISNSSVTAPEMGEAGDNLFVLVNAPATHKGSAVDFDTYDKIIDQRLQQFGIDITSDVLFEQRITPQDIEQKFSAYHGSLYGLSSNGTRGAFMRPSNRSKNVHNLFFAGGSTHPGGGSPMVTLSGKLASERIVSAVAATL | not soluble |
| GGHDVPLTNYLNAQYYTDITLGTPPQNFKVILDTGSSNLWVPSNECGSLACFLHSKYDHEASSSYKANGTEFAIQYGTGSLEGYISQDTLSIGDLTIPKQDFAEATSEPGLTFAFGKFDGILGLGYDTISVDKVVPPFYNAIQQDLLDEKRFAFYLGDTSKDTENGGEATFGGIDESKFKGDITWLPVRRKAYWEVKFEGIGLGDEYAELESHGAAIDTGTSLITLPSGLAEMINAEIGAKKGSTGQYTLDCNTRDNLPDLIFNFNGYNFTIGPYDYTLEVSGSCISAITPMDFPEPVGPLAIVGDAFLRKYYSIYDLGNNAVGLAKAI | soluble |
| MDMNVEIFAGIVNNPLTKKALRNLSGSCKTCGDKRIKIAIDYALGYRSDACWKCRAAAKVVKKVIEAGGRAFNVDMNEIREKFRDAYWRKGLASVIKGIAHFGVRKPFVPGAPFQVVWDITYSCNLRCKHCYATAGKPLQDELTTDEALETIDKLDRLGVTIIAFSGGEPLVRRDIFELTRYAAEKGIYVAIATNGTLITEEIAKRMKENGVGYVQISLDGMKETHEAFRGIRGCFDKTVEGIRNAVKTGLFVNVSMTVTRYNYHEVPKVVELCEKLGVNWFMHYNFIPTGRGREIVEADITPEQREELLKWLYEKNYSSNISLLSTAPQFARVALQCQGEIVPTHFYNVNAGERLKELAEFIGGCGAGRFYFAIKANGDIQPCVFFPLKVGNVREDDLEELWLHNHVFEDLRDKDILEGCGSCGYRYVCGGCRARAYNYFGDYTKPDPGCVNNRRWWERISKIEVRA | not soluble |
| GMTNVGRPIETHAITVGQGSDARSIAALVRAPAQDERPTCIWLGGYRSDMTGTKALEMDDLAASLGVGAIRFDYSGHGASGGAFRDGTISRWLEEALAVLDHFKPEKAILVGSSMGGWIALRLIQELKARHDNPTQVSGMVLIAPAPDFTSDLIEPLLGDRERAELAENGYFEEVSEYSPEPNIFTRALMEDGRANRVMAGMIDTGCPVHILQGMADPDVPYQHALKLVEHLPADDVVLTLVRDGDHRLSRPQDIDRMRNAIRAMIEPRP | soluble |
| MQHHKVAIIGAGAAGIGMAITLKDFGITDVIILEKGTVGHSFKHWPKSTRTITPSFTSNGFGMPDMNAISMDTSPAFTFNEEHISGETYAEYLQVVANHYELNIFENTVVTNISADDAYYTIATTTETYHADYIFVATGDYNFPKKPFKYGIHYSEIEDFDNFNKGQYVVIGGNESGFDAAYQLAKNGSDIALYTSTTGLNDPDADPSVRLSPYTRQRLGNVIKQGARIEMNVHYTVKDIDFNNGQYHISFDSGQSVHTPHEPILATGFDATKNPIVQQLFVTTNQDIKLTTHDESTRYPNIFMIGATVENDNAKLCYIYKFRARFAVLAHLLTQREGLPAKQEVIENYQKNQMYLDDYSCCEVSCTCLEHHHHHH | soluble |
| MVRILPIILSALSSKLVASTILHSSIHSVPSGGEIISAEDLKELEISGNSICVDNRCYPKIFEPRHDWQPILPGQELPGGLDIRINMDTGLKEAKLNDEKNVGDNGSHELIVSSEDMKASPGDYEFSSDFKEMRNIIDSNPTLSSQDIARLEDSFDRIMEFAHDYKHGYKIITHEFALLANLSLNENLPLTLRELSTRVITSCLRNNPPVVEFINESFPNFKSKIMAALSNLNDSNHRSSNILIKRYLSILNELPVTSEDLPIYSTVVLQNVYERNNKDKQLQIKVLELISKILKADMYENDDTNLILFKRNAENWSSNLQEWANEFQEMVQNKSIDELHTRTFFDTLYNLKKIFKSDITINKGFLNWLAQQCKARQSNLDNGLQERDTEQDSFDKKLIDSRHLIFGNPMAHRIKNFRDEL | soluble |
| MADVDELEDPMEEMTSYTFARFLRSPETEAFVRNLDRPPQMPAMRFVYLYCLCKQIQEFSGETGFCDFVSSLVQENDSKDGPSLKSIYWGLQEATDEQRTVLCSYVESMTRGQSENLMWDILRNGIISSSKLLSTIKNGPTKVFEPAPISTNHYFGGPVAFGLRCEDTVKDIVCKLICGDASANRQFGFMISPTDGIFGVSLDLCVNVESQGDFILFTDRSCIYEIKCRFKYLFSKSEFDPIYPSYTALYKRPCKRSFIRFINSIARPTVEYVPDGRLPSEGDYLLTQDEAWNLKDVRKRKLGPGHDLVADSLAANRGVESMLYVMTDPSENAGRIGIKDRVPVNIFINPRHNYFYQVLLQYKIVGDYVRHSGGGKPGRDCSPRVNIVTAFFRKRSPLDPATCTLGSDLLLDASVEIPVAVLVTPVVLPDSVIRKTLSTAAGSWKAYADNTFDTAPWVPSGLFADDESTP | soluble |
| MGSDKIHHHHHHMMIDTPAVLIDRERLTANISRMAAHAGAHEIALRPHVKTHKIIEIAQMQVDAGARGITCATIGEAEIFAGAGFTDIFIAYPLYLTDHAVQRLNAIPGEISIGVDSVEMAQATAGLREDIKALIEVDSGHRRSGVTATASELSQIREALGSRYAGVFTFPGHSYGPGNGEQAAADELQALNNSVQRLAGGLTSGGSSPSAQFTDAIDEMRPGVYVFNDSQQITSGACTEKQVAMTVLSTVVSRNVSDRRIILDAGSKILSTDKPAWIDGNGFVLGNPEARISALSEHHATIFWPDKVLLPVIGEQLNIVPNHACNVINLVDEVYVREADGTFRTWKVVARGRNN | not soluble |
| MGSDKIHHHHHHMTEGGFDPALLVQSWPKPSKPRPIVTFGSGSIVGDAHFPAYRKAGFPIAGLYDPDQAKATTLADKWGVTAFRSVGEAAAVQDAIFDLATPPGRHAEILKDLPDGAVALIQKPMGNYLGEATEILEICRAKNLKAAVNFQLRFAPMMLALKDAIAKGWLGEIVDFDAWLALATPWELWEFLLKAPRVEIAMHSIHYLDLIRQLLGDPKGVHAKTLGHPNHKVAQTRTSAILDYGDTVRCALSINHDHKFGRRHQACEFRICGTEGAAYLKLGLNLDYPRGEPDILEIHPKGGTDWIAVPLAGEWFPDAFVGRMANVQRFASGEDDELVSSVEDAWSTMALVEAAYKSSAAPATLIAERP | not soluble |
| MLQGKAFLITGAGGALSRALIPAFHQAGARLFLSDPRPERMAERAQAVGAKTFVADLTRLEEALALARFVEEEAPLYGVVHTVGGFAAGRFLDTDPGLYDWMLDLNLRTTFNLLKAVLPYMAKRGEGFFAAFAAGPAWTGAGPGRALYTAAKTALASLLRSLQGEVEGVRFLVVYPMGTLDTEANRKAMPEADFSRWIAPELVAKVVVEAAGAKGGRLLELPIYPPL | soluble |
| SSLAISVANDDAGIFQPSLNALYGHPAADRGDYTAGLFLGYSHDLTDASQLSFHIAQDIYSPSGANKRKPEAVKGDRAFSAFLHTGLEWNSLATNWLRYRLGTDIGVIGPDAGGQEVQNRAHRIIGAEKYPAWQDQIENRYGYTAKGMVSLTPAIDILGVNVGFYPEVSAVGGNLFQYLGYGATVALGNDKTFNSDNGFGLLSRRGLIHTQKEGLIYKVFAGVERREVDKNYTLQGKTLQTKMETVDINKTVDEYRVGATIGYSPVAFSLSLNKVTSEFRTGDDYSYINGDITFFF | soluble |
| AYESIQVTSAQKHVLHVQLNRPEKRNAMNRAFWRELVECFQKISKDSDCRAVVVSGAGKMFTSGIDLMDMASDILQPPGDDVARIAWYLRDLISRYQKTFTVIEKCPKPVIAAIHGGCIGGGVDLISACDIRYCTQDAFFQVKEVDVGLAADVGTLQRLPKVIGNRSLVNELTFTARKMMADEALDSGLVSRVFPDKDVMLNAAFALAADISSKSPVAVQGSKINLIYSRDHSVDESLDYMATWNMSMLQTQDIIKSVQAAMEKKDSKSITFSKL | soluble |
| MKLSLVLTARDDGARRLLADTQRQLDRTAKSRAQLERQSHTYALTGIRSEKQIQREIMLTQAAFNRLARSGKASQNDLARAAVATRNRIRELNAELKQGTGFADKMGKIGRFGAAAVAGGAAAYTVLKPAMDNRKQLDENINRVSRQAFIEDNSKSAAWIATEGAQQIKDLALELVEKNGGTHDKALDLISGMMTTGLNFAQTKNEAQAAYAFALASEGSGEDTAKLIKTLKDGGMSGKDLQLGLEHVLQSGLDGTFEVRDMVRELPSLLSAAQQAGMNGVGGLDYLLSLLQSAANKSGSPAEAATNVQNLLSKTLSPDTIGRLKKMANPNDPKKGVDWIGSVVQGKQNGENAVQVLSRLADAMLVKDKQYQDYKKRAAAGDKTAAEQANMLKGALLAQLLPDLQAKQGLLAATDMTQIREYMASLAGVTLDNGKIAKNNEARMLSAAAQQEQQESLAMLRESLTGTLVDMETSFKKLAAEYPNATLALQALTTAATAASAAMLLTAGGGKGAGFLKDVGSKALGWGKASAGGVAAGATAAGGKLLSWGKSAGSGLMNNPALVKRAGLLGMLLYSESLGDGTLPKGLRGTKTTPEMINRLKNNGIRFEPAPKREQARGGVPQYLAAPSAQPTDKMLSPLFSTQTAAYQAAIQQQTAAYQAALAQDTAAVTTGLAQVQSAMASASQTINTNVSLNIDGRVIANEVSRYQVAMFGRGAGQ | not soluble |
| SPRIAEKMLRKRHGQAAFAAYVEKREQTRAAARAYDQRALQGDLEIIYNFGQDLIDEHAIEVSAEQVTVPGFSQPLVYKKDARFSDMLD | not soluble |
| MNLLEKTRKINAMLQKAAGRPVNFKEMAETLCEVIEANVFVVSRRGKLLGFAIKQSIENERMKRMLEERQFPEEYTKNLFNITETSPNIDINSEYTAFPVENRDLFKTGLTTIVPINGGGERLGTLILSRLDREFDNDDLILAEYGATVVGMEILREKAEEIEEEARSKAVVQMAISSLSYSELEAIEHIFEELDGTEGLLVASKIADRVGITRSVIVNALRKLESAGVIESRSLGMKGTYIKVLNDKFLSELEKLKSS | not soluble |
| MISCSEEGSNKILVAISLDRDESQNVLSWAINVLAKPSDTVVALHLLVGEEPRKLPMKKKKRTQIRHAKAHVISMLGEFAYTCCHNQVNLEAKVGFSSNIGRGLIDEVKSISAHYLVLSRPTTHEFR | soluble |
| MGSSHHHHHHSSGRENLYFQGHMRILWILPYSPWPTTSGGKTRQYHLLRSLAARGHRITVLLHSKQPVSAEDRQALEPFLERLVVLPRRPLRSLSTLLAALFAPYPLLASVNGLSAELQRTATELLREPWDVVQVEHSYSFQPYERPLRDAGQPFVLTEHNVESSLGAATYDRLPGWALPFVRYDQWRYRRWERRVMSQAAAVVAVTEKDARQLGAMLGRPVPVVVNGVDCEHFATARPTPEAQRVLFLGNYEYAPNVDAVEWMLDEILPRVWAHCPEARMSVCGYALPAEWAQRWSDPRIEWQGFVPDLLQLQSSSSVFLAALRHGGGSKLKVLEALAAGLPLASTAQGVSGLELRDGEDYLGGESAEQLANAVVRLLQDPAQARALGENGRAYVRRAHDWSVAASQLEQVYAGLAEGAPACA | soluble |
| KMPVTAGLTVEKKINKHLAVETGLLYSNLRAEQNLHYLGIPVKLNVTLAETPKFDLYASVGGVADKCIAGAPDNSFKNEPVQLALTAGVGMNYKINDKLALFAEPG | not soluble |
